US20170165339A1 (IMMATICS BIOTECHNOLOGIES, published 2017)

Target: HLA-A*02 (human)
Assay: UV peptide-exchange ELISA, yield grade

Binder | peptide exchange yield [%]
SLLGGTFVGI [SLLGGTFVGI (SEQ ID NO: 130)] | 50 to 75
KLQNIMMLL [KLQNIMMLL (SEQ ID NO: 230)] | 20 to 49
ILNTHITEL [ILNTHITEL (SEQ ID NO: 149)] | 50 to 75
SLDPDTLPAV [SLDPDTLPAV (SEQ ID NO: 115)] | 20 to 49
FLLGVSKEV [FLLGVSKEV (SEQ ID NO: 110)] | 50 to 75
KVMATIEKV [KVMATIEKV (SEQ ID NO: 124)] | 20 to 49
LLNPVVEFV [LLNPVVEFV (SEQ ID NO: 155)] | 50 to 75
FIIQGLRSVGA [FIIQGLRSVGA (SEQ ID NO: 119)] | 50 to 75
GLLFSLRSV [GLLFSLRSV (SEQ ID NO: 92)] | ≥ 75
FLERGLESA [FLERGLESA (SEQ ID NO: 113)] | 20 to 49
MMVGDLLEV [MMVGDLLEV (SEQ ID NO: 152)] | 50 to 75
ALLAKILQI [ALLAKILQI (SEQ ID NO: 138)] | 50 to 75
FISERVEVV [FISERVEVV (SEQ ID NO: 153)] | ≥ 75
KMPDVELFV [KMPDVELFV (SEQ ID NO: 117)] | 50 to 75
SLGKFTFDV [SLGKFTFDV (SEQ ID NO: 112)] | ≥ 75
YLWATIQRI [YLWATIQRI (SEQ ID NO: 145)] | 50 to 75
HLSTIIHEA [HLSTIIHEA (SEQ ID NO: 135)] | 50 to 75
ILGDLSHLL [ILGDLSHLL (SEQ ID NO: 156)] | 50 to 75
FTIFRTISV [FTIFRTISV (SEQ ID NO: 121)] | 50 to 75
ALHFSEDEI [ALHFSEDEI (SEQ ID NO: 146)] | 20 to 49
AILAHLNTV [AILAHLNTV (SEQ ID NO: 229)] | ≥ 75
GLLGSLFFL [GLLGSLFFL (SEQ ID NO: 95)] | ≥ 75
RLQDILWFL [RLQDILWFL (SEQ ID NO: 129)] | ≥ 75
RLFPDFFTRVAL [RLFPDFFTRVAL (SEQ ID NO: 98)] | 20 to 49
MLDKYSHYL [MLDKYSHYL (SEQ ID NO: 231)] | 50 to 75

Binder | peptide exchange yield [%]
FINDSIVYL [FINDSIVYL (SEQ ID NO: 106)] | 50 to 75
LLVSHLYLV [LLVSHLYLV (SEQ ID NO: 96)] | 20 to 49
FIFDEAEKL [FIFDEAEKL (SEQ ID NO: 82)] | < 20
ILVEGISTV [ILVEGISTV (SEQ ID NO: 142)] | 50 to 75
YLLQSVNQLLL [YLLQSVNQLLL (SEQ ID NO: 99)] | 20 to 49
VTPVTVSAV [VTPVTVSAV (SEQ ID NO: 120)] | < 20
ALLAFFPGL [ALLAFFPGL (SEQ ID NO: 144)] | 50 to 75
GLAVPTPSV [GLAVPTPSV (SEQ ID NO: 134)] | 50 to 75
KIFPAALQLV [KIFPAALQLV (SEQ ID NO: 232)] | 50 to 75
QLWQFLVTL [QLWQFLVTL (SEQ ID NO: 118)] | 50 to 75
GQASYFYVA [GQASYFYVA (SEQ ID NO: 83)] | 20 to 49
QLAPVFQRV [QLAPVFQRV (SEQ ID NO: 89)] | 20 to 49
ALADFMLSL [ALADFMLSL (SEQ ID NO: 101)] | 50 to 75
VTSNSGILGV [VTSNSGILGV (SEQ ID NO: 131)] | 50 to 75
FLFGGVLMTL [FLFGGVLMTL (SEQ ID NO: 136)] | 20 to 49
VLDPALPALV [VLDPALPALV (SEQ ID NO: 123)] | 20 to 49
ILLKNLVTI [ILLKNLVTI (SEQ ID NO: 108)] | 20 to 49
HLFDAFVSV [HLFDAFVSV (SEQ ID NO: 233)] | 50 to 75
TQSPATLSV [TQSPATLSV (SEQ ID NO: 128)] | 20 to 49
TIYKDFVYI [TIYKDFVYI (SEQ ID NO: 87)] | 20 to 49
SVDSHFQEV [SVDSHFQEV (SEQ ID NO: 86)] | 20 to 49
RLLGTEFQV [RLLGTEFQV (SEQ ID NO: 154)] | 50 to 75
YLVSEIFKA [YLVSEIFKA (SEQ ID NO: 103)] | 50 to 75
SLADYEHFV [SLADYEHFV (SEQ ID NO: 125)] | ≥ 75
FLLPTGAEA [FLLPTGAEA (SEQ ID NO: 139)] | 20 to 49

Binder | peptide exchange yield [%]
FLDKVLVAA [FLDKVLVAA (SEQ ID NO: 141)] | 50 to 75
ALLPRLHQL [ALLPRLHQL (SEQ ID NO: 133)] | ≥ 75
SLDPSVTHL [SLDPSVTHL (SEQ ID NO: 109)] | 20 to 49
MLAGIAITV [MLAGIAITV (SEQ ID NO: 148)] | 50 to 75
ALISWQPPRA [ALISWQPPRA (SEQ ID NO: 104)] | 50 to 75
QMFQYFITV [QMFQYFITV (SEQ ID NO: 126)] | ≥ 75
ALLGMIIVGV [ALLGMIIVGV (SEQ ID NO: 100)] | < 20
YLMDDTVEI [YLMDDTVEI (SEQ ID NO: 147)] | ≥ 75
LLVPTSGIYFV [LLVPTSGIYFV (SEQ ID NO: 107)] | 50 to 75
VLYDRPLKI [VLYDRPLKI (SEQ ID NO: 150)] | 50 to 75
ILGEVLAQL [ILGEVLAQL (SEQ ID NO: 132)] | 50 to 75
VLNDILVRA [VLNDILVRA (SEQ ID NO: 85)] | 50 to 75
ALLPELREV [ALLPELREV (SEQ ID NO: 143)] | 50 to 75
QLIQTLHAV [QLIQTLHAV (SEQ ID NO: 114)] | 50 to 75
TLTSLLAQA [TLTSLLAQA (SEQ ID NO: 157)] | 50 to 75
AIVDLIHDI [AIVDLIHDI (SEQ ID NO: 111)] | 20 to 49
ALCPRIHEV [ALCPRIHEV (SEQ ID NO: 84)] | ≥ 75
FLQDLEQRL [FLQDLEQRL (SEQ ID NO: 90)] | 50 to 75
LLLPAVPVGA [LLLPAVPVGA (SEQ ID NO: 94)] | 50 to 75
KLDGNELDL [KLDGNELDL (SEQ ID NO: 127)] | 50 to 75
AQADHLPQL [AQADHLPQL (SEQ ID NO: 88)] | 20 to 49
SVLDSTAKV [SVLDSTAKV (SEQ ID NO: 151)] | 20 to 49
ALLGTKILL [ALLGTKILL (SEQ ID NO: 105)] | 50 to 75
VLLDIQEVFQI [VLLDIQEVFQI (SEQ ID NO: 102)] | 50 to 75
GVVDPVHGV [GVVDPVHGV (SEQ ID NO: 122)] | 20 to 49
